The text below walks through data of the supplement of paper PMC5998384.

In data set [1] the test system is HeLa Kyoto. Description: solubility in G1/S (NP-40 vs SDS abundance) (log2 ratio); higher = more soluble. Particulars: cell cycle stage: G1/S.
Data set [2] concerns HeLa Kyoto. Nature of the data set: melting temperature (median over replicates), in situ; higher = more thermally stable.
The test system of data set [3] is HeLa Kyoto. Description: solubility change mitosis vs G1/S (difference of NP-40 vs SDS log2 ratios) (log2 ratio difference); higher = more soluble in mitosis.
For data set [4], the system named is HeLa Kyoto. Nature of the data set: thermal stability score vs G1/S (z-score of summed log2 fold changes over temperatures); higher = more thermally stable than in G1/S.
[5] abbreviates: cell cycle stage: early G1 (4.5 h after nocodazole release).
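For melting temperature (median over replicates), in situ in this document: HeLa Kyoto cells synchronized by double thymidine or nocodazole block, proteins quantified by TMT10plex mass spectrometry, three independent biological replicates.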
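For solubility change mitosis vs G1/S (difference of NP-40 vs SDS log2 ratios) in this document: synchronized HeLa Kyoto cells (double thymidine block for G1/S, nocodazole release for mitosis), protein amounts in NP-40 versus SDS lysates quantified by mass spectrometry, three biological replicates.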
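For solubility in G1/S (NP-40 vs SDS abundance) in this document: HeLa Kyoto cells arrested at G1/S by double thymidine block, proteins quantified by TMT10plex mass spectrometry in mild NP-40 versus SDS extracts, three biological replicates.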
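For thermal stability score vs G1/S (z-score of summed log2 fold changes over temperatures) in this document: synchronized HeLa Kyoto cells, proteins quantified by TMT10plex mass spectrometry, three biological replicates, mitosis taken 0.5 h after nocodazole release, G1/S directly after double thymidine block.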

As to “MRRLPRALLLQLRLALLVAAGAPEVLVSAPRSLVWGPGLQAAVVLPVRYFYLQAVNSEGQNLTRSPAGETPFKVVVKSLSPKELVRIHVPKPLDRNDGTFLMRYRMYETVDEGLKIEVLYGDEHVAQSPYILKGPVYHEYCECPEDPQAWQKTLSCPTKEPQIAKDFASFPSINLQQMLKEVPKRFGDERGAIVHYTILNNHVYRRSLGKYTDFKMFSDEILLSLTRKVLLPDLEFYVNLGDWPLEHRKVNGTPSPIPIISWCGSLDSRDVVLPTYDITHSMLEAMRGVTNDLLSIQGNTGPSWINKTERAFFRGRDSREERLQLVQLSKENPQLLDAGITGYFFFQEKEKELGKAKLMGFFDFFKYKYQVNVDGTVAAYRYPYLMLGDSLVLKQDSPYYEHFYMALEPWKHYVPIKRNLSDLLEKVKWAKENDEEAKKIAKEGQLMARDLLQPHRLYCYYYQVLQKYAERQSSKPEVRDGMELVPQPEDSTAICQCHRKKPSREEL [KDELC2]”, the “solubility in G1/S (log2)” value in the data set with HeLa Kyoto [1] amounted to 0.282. The melting temperature came out at 53.8 °C in the data set with HeLa Kyoto [2] (cell cycle stage: G1/S) and 54.9 °C in the data set on HeLa Kyoto [2] (cell cycle stage: mitosis). The “solubility change mitosis (log2)” value in the data set with HeLa Kyoto [3] is -0.048. For the same sequence, the thermal stability score in the data set with HeLa Kyoto [4] (setting [5]) came out at 4.98; with HeLa Kyoto [4] (cell cycle stage: mitosis), 4.71.
With “MAPAMQPAEIQFAQRLASSEKGIRDRAVKKLRQYISVKTQRETGGFSQEELLKIWKGLFYCMWVQDEPLLQEELANTIAQLVHAVNNSAAQHLFIQTFWQTMNREWKGIDRLRLDKYYMLIRLVLRQSFEVLKRNGWEESRIKVFLDVLMKEVLCPESQSPNGVRFHFIDIYLDELSKVGGKELLADQNLKFIDPFCKIAAKTKDHTLVQTIARGVFEAIVDQSPFVPEETMEEQKTKVGDGDLSAEEIPENEVSLRRAVSKKKTALGKNHSRKDGLSDERGRDDCGTFEDTGPLLQFDYKAVADRLLEMTSRKNTPHFNRKRLSKLIKKFQDLSEGSSISQLSFAEDISADEDDQILSQGKHKKKGNKLLEKTNLEKEKGSRVFCVEEEDSESSLQKRRRKKKKKHHLQPENPGPGGAAPSLEQNRGREPEASGLKALKARVAEPGAEATSSTGEESGSEHPPAVPMHNKRKRPRKKSPRAHREMLESAVLPPEDMSQSGPSGSHPQGPRGSPTGGAQLLKRKRKLGVVPVNGSGLSTPAWPPLQQEGPPTGPAEGANSHTTLPQRRRLQKKKAGPGSLELCGLPSQKTASLKKRKKMRVMSNLVEHNGVLESEAGQPQALGSSGTCSSLKKQKLRAESDFVKFDTPFLPKPLFFRRAKSSTATHPPGPAVQLNKTPSSSKKVTFGLNRNMTAEFKKTDKSILVSPTGPSRVAFDPEQKPLHGVLKTPTSSPASSPLVAKKPLTTTPRRRPRAMDFF [RRP1B]”, the “solubility in G1/S (log2)” value in the data set with HeLa Kyoto [1] is -2.01. In addition, the melting temperature amounted to 47.9 °C with HeLa Kyoto [2] (cell cycle stage: G1/S) and 49.5 °C in the data set on HeLa Kyoto [2] (cell cycle stage: mitosis). Besides, the “solubility change mitosis (log2)” value in the data set on HeLa Kyoto [3] is 1.63. Further, the thermal stability score with HeLa Kyoto [4] (setting [5]) amounted to 1.95; with HeLa Kyoto [4] (cell cycle stage: mitosis) it was 1.97.
As for “MSDLQAAEGPGSWSPTARPGSAGGVGDCQGVEGSQAAASENEDLENKDTSLLASATDPEPCSSPHRPQMVSPVSKDATEDLRKATGPLEAQALVKQDLLPADQAQVLNEMAKYQVPQRSGDIVMIQSEHTGAIDVLSADLESADLLGDHRKVSPPLMAPPCIWTFAKVKEFKSKLGKEKNSRLVVKRGEVVTIRVPTHPEGKRVCWEFATDDYDIGFGVYFDWTPVTSTDITVQVSDSSDDEDEEEEEEEEIEEPVPAGDVERGSRSSLRGRYGEVMPVYRRDSHRDVQAGSHDYPGEGIYLLKFDNSYSLLRNKTLYFHIYYTS [TMED8]”, the “solubility in G1/S (log2)” value with HeLa Kyoto [1] amounted to 0.328. In addition, the figures for the melting temperature with HeLa Kyoto [2] (cell cycle stage: G1/S) and in the data set with HeLa Kyoto [2] (cell cycle stage: mitosis) were 50.4 °C and 50.3 °C, respectively. For the same sequence, in the data set on HeLa Kyoto [3], the “solubility change mitosis (log2)” value was -0.104. Also, the results for the thermal stability score in the data set on HeLa Kyoto [4] (setting [5]) and in the data set on HeLa Kyoto [4] (cell cycle stage: mitosis) were -0.422 and -0.616, respectively.
“MAAARPSLGRVLPGSSVLFLCDMQEKFRHNIAYFPQIVSVAARMLKVARLLEVPVMLTEQYPQGLGPTVPELGTEGLRPLAKTCFSMVPALQQELDSRPQLRSVLLCGIEAQACILNTTLDLLDRGLQVHVVVDACSSRSQVDRLVALARMRQSGAFLSTSEGLILQLVGDAVHPQFKEIQKLIKEPAPDSGLLGLFQGQNSLLH [ISOC2]”: the “solubility in G1/S (log2)” value in the data set with HeLa Kyoto [1] was 0.188. Moreover, the melting temperature amounted to 55.1 °C with HeLa Kyoto [2] (cell cycle stage: G1/S) and 54.9 °C in the data set with HeLa Kyoto [2] (cell cycle stage: mitosis). Moreover, in the data set with HeLa Kyoto [3], the “solubility change mitosis (log2)” value is -0.173. For the same sequence, the values for the thermal stability score in the data set on HeLa Kyoto [4] (setting [5]) and in the data set on HeLa Kyoto [4] (cell cycle stage: mitosis) were 1.82 and -1.19, respectively.
In the case of “MSINLTVDIYIYLLSNARSVCGKQRSKQLYFLFSPKHYWRISHISLQRGFHTNIIRCKWTKSEAHSCSKHCYSPSNHGLHIGILKLSTSAPKGLTKVNICMSRIKSTLNSVSKAVFGNQNEMISRLAQFKPSSQILRKVSDSGWLKQKNIKQAIKSLKKYSDKSAEKSPFPEEKSHIIDKEEDIGKRSLFHYTSSITTKFGDSFYFLSNHINSYFKRKEKMSQQKENEHFRDKSELEDKKVEEGKLRSPDPGILAYKPGSESVHTVDKPTSPSAIPDVLQVSTKQSIANFLSRPTEGVQALVGGYIGGLVPKLKYDSKSQSEEQEEPAKTDQAVSKDRNAEEKKRLSLQREKIIARVSIDNRTRALVQALRRTTDPKLCITRVEELTFHLLEFPEGKGVAVKERIIPYLLRLRQIKDETLQAAVREILALIGYVDPVKGRGIRILSIDGGGTRGVVALQTLRKLVELTQKPVHQLFDYICGVSTGAILAFMLGLFHMPLDECEELYRKLGSDVFSQNVIVGTVKMSWSHAFYDSQTWENILKDRMGSALMIETARNPTCPKVAAVSTIVNRGITPKAFVFRNYGHFPGINSHYLGGCQYKMWQAIRASSAAPGYFAEYALGNDLHQDGGLLLNNPSALAMHECKCLWPDVPLECIVSLGTGRYESDVRNTVTYTSLKTKLSNVINSATDTEEVHIMLDGLLPPDTYFRFNPVMCENIPLDESRNEKLDQLQLEGLKYIERNEQKMKKVAKILSQEKTTLQKINDWIKLKTDMYEGLPFFSKL [PNPLA8]”, the “solubility in G1/S (log2)” value in the data set on HeLa Kyoto [1] was found to be 0.117. The melting temperature came out at 53.6 °C in the data set on HeLa Kyoto [2] (cell cycle stage: G1/S) and 54 °C in the data set with HeLa Kyoto [2] (cell cycle stage: mitosis). Further, the “solubility change mitosis (log2)” value in the data set with HeLa Kyoto [3] was -0.0941. The figures for the thermal stability score with HeLa Kyoto [4] (setting [5]) and with HeLa Kyoto [4] (cell cycle stage: mitosis) were -0.78 and -0.701, respectively.
